Measured values taken from PMC3527552.

B1: OATP1B1: N134/503/516Q (protein)
parent chain: MDQNQHLNKTAEAQPSENKKTRYCNGLKMFLAALSLSFIAKTLGAIIMKSSIIHIERRFEISSSLVGFIDGSFEIGNLLVIVFVSYFGSKLHRPKLIGIGCFIMGIGGVLTALPHFFMGYYRYSKETNINSSENSTSTLSTCLINQILSLNRASPEIVGKGCLKESGSYMWIYVFMGNMLRGIGETPIVPLGLSYIDDFAKEGHSSLYLGILNAIAMIGPIIGFTLGSLFSKMYVDIGYVDLSTIRITPTDSRWVGAWWLNFLVSGLFSIISSIPFFFLPQTPNKPQKERKASLSLHVLETNDEKDQTANLTNQGKNITKNVTGFFQSFKSILTNPLYVMFVLLTLLQVSSYIGAFTYVFKYVEQQYGQPSSKANILLGVITIPIFASGMFLGGYIIKKFKLNTVGIAKFSCFTAVMSLSFYLLYFFILCENKSVAGLTMTYDGNNPVTSHRDVPLSYCNSDCNCDESQWEPVCGNNGITYISPCLAGCKSSSGNKKPIVFYNCSCLEVTGLQNRNYSAHLGECPRDDACTRKFYFFVAIQVLNLFFSALGGTSHVMLIVKIVQPELKSLALGFHSMVIRALGGILAPIYFGALIDTTCIKWSTNNCGTRGSCRTYNSTSFSRVYLGLSSMLRVSSLVLYIILIYAMKKKYQEKDINASENGSVMDEANLESLNKNKHFVPSAGADSETHC
B2: OATP1B1: N503Q (protein)
parent chain: B1 parent chain
B3: OATP1B1: N134/516Q (protein)
parent chain: B1 parent chain
B4: OATP1B1: N134/503Q (protein)
parent chain: B1 parent chain
B5: OATP1B1: N134/617Q (protein)
parent chain: B1 parent chain
B6: OATP1B1: N134/432Q (protein)
parent chain: B1 parent chain
B7: OATP1B1: N134Q (protein)
parent chain: B1 parent chain
B8: OATP1B1: N516Q (protein)
parent chain: B1 parent chain
B9: OATP1B1: tunicamycin 0.5 μg/ml, 42 h (protein)
parent chain: B1 parent chain

Assay: total cell lysate anti-HA Western blot
Conditions: glycan lost; control: wild type

Protein | expression_or_secretion
B1 | decreases

Assay: cell surface biotinylation, anti-HA Western blot
Conditions: glycan lost; control: wild type

Protein | expression_or_secretion, percent_of_wt
B1 | decreases
B2 | no change
B3 | no change
B4 | no change
B5 | no change
B6 | no change
B7 | no change
B8 | no change

Assay: confocal immunofluorescence, colocalisation with calnexin
Conditions: glycan lost; control: wild type

Protein | localisation_or_trafficking
B1 | changes

Assay: 0.1 μM E-3-S uptake, 2 min, HEK293
Conditions: glycan lost; control: wild type

Protein | other: transport activity
B2 | no change
B3 | no change
B4 | no change
B5 | no change
B6 | no change
B7 | no change
B8 | no change

Assay: cell lysate anti-HA Western blot
Conditions: glycan lost; control: untreated

Protein | expression_or_secretion
B9 | decreases
